Laboratory results as given in the supplement of paper PMC11246515.
± gives the standard deviation of the averaged measurements.

Assay: total protein half-life in vivo (active degradation + dilution); higher = more stable protein
[1] = E. coli NCM3722 delta-clpP delta-lon delta-hslV, growth: N-lim chemostat, doubling time 6 h
[2] = E. coli NCM3722 delta-clpP, growth: N-lim chemostat, doubling time 6 h
[3] = E. coli NCM3722 delta-hslV, growth: N-lim chemostat, doubling time 6 h
[4] = E. coli NCM3722 delta-lon, growth: N-lim chemostat, doubling time 6 h
[5] = E. coli NCM3722 delta-smpB, growth: N-lim chemostat, doubling time 6 h
[6] = wild type E. coli NCM3722, growth: C-lim chemostat, doubling time 3 h
[7] = wild type E. coli NCM3722, growth: C-lim chemostat, doubling time 6 h
[8] = wild type E. coli NCM3722, growth: C-lim chemostat, doubling time 12 h
[9] = wild type E. coli NCM3722, growth: N-lim chemostat, doubling time 6 h
[10] = wild type E. coli NCM3722, growth: N-lim chemostat, doubling time 12 h
[11] = wild type E. coli NCM3722, growth: P-lim chemostat, doubling time 6 h
[12] = wild type E. coli NCM3722, growth: P-lim chemostat, doubling time 12 h

MDQTYSLESFLNHVQKRDPNQTEFAQAVREVMTTLWPFLEQNPKYRQMSLLERLVEPERVIQFRVVWVDDRNQIQVNRAWRVQFSSAIGPYKGGMRFHPSVNLSILKFLGFEQTFKNALTTLPMGGGKGGSDFDPKGKSEGEVMRFCQALMTELYRHLGADTDVPAGDIGVGGREVGFMAGMMKKLSNNTACVFTGKGLSFGGSLIRPEATGYGLVYFTEAMLKRHGMGFEGMRVSVSGSGNVAQYAIEKAMEFGARVITASDSSGTVVDESGFTKEKLARLIEIKASRDGRVADYAKEFGLVYLEGQQPWSLPVDIALPCATQNELDVDAAHQLIANGVKAVAEGANMPTTIEATELFQQAGVLFAPGKAANAGGVATSGLEMAQNAARLGWKAEKVDARLHHIMLDIHHACVEHGGEGEQTNYVQGANIAGFVKVADAMLAQGVI
total protein half-life in vivo [1]: 3.53 ± 0.36 h | total protein half-life in vivo [2]: 1.97 ± 0.1 h | total protein half-life in vivo [3]: 1.8 ± 0.11 h | total protein half-life in vivo [4]: 2.13 ± 0.14 h | total protein half-life in vivo [5]: 2.14 ± 0.08 h | total protein half-life in vivo [6]: 2.94 ± 0.19 h | total protein half-life in vivo [7]: 4.66 ± 0.28 h | total protein half-life in vivo [8]: 7.29 ± 0.52 h | total protein half-life in vivo [9]: 1.88 ± 0.073 h | total protein half-life in vivo [10]: 2.61 ± 0.4 h | total protein half-life in vivo [11]: 5.35 ± 0.14 h | total protein half-life in vivo [12]: 9.48 ± 0.6 h

MTRLASRFGAANLIRRDRPLTREELFRVVPSVFSEDKHESRSERYTYIPTISLLDSLQREGFQPFFACQTRVRDPGRREHTKHMLRLRREGQITGKQVPEIILLNSHDGTSSYQMLPGLFRAVCQNGLVCGESFGEVRVPHKGDVVSQVIEGAYEVLGIFDRVEEKRDAMQSLLLPPPAQQALAKAALTYRFGEDHQPVTESQILSPRRWQDESNDLWTTYQRIQENLIKGGLSGRNAKGGRSHTRAVRGIDGDVKLNRALWVMAEALLTQLQ
total protein half-life in vivo [1]: 5.7 ± 0.74 h | total protein half-life in vivo [7]: 3.1 h | total protein half-life in vivo [9]: 4.67 h | total protein half-life in vivo [11]: 3.42 h

MDMHSGTFNPQDFAWQGLTLTPAAAIHIRELVAKQPGMVGVRLGVKQTGCAGFGYVLDSVSEPDKDDLLFEHDGAKLFVPLQAMPFIDGTEVDFVREGLNQIFKFHNPKAQNECGCGESFGV
total protein half-life in vivo [1]: 4.64 ± 0.11 h | total protein half-life in vivo [2]: 2.79 h | total protein half-life in vivo [4]: 3.64 h | total protein half-life in vivo [5]: 2.14 h | total protein half-life in vivo [6]: 1.94 ± 0.049 h | total protein half-life in vivo [7]: 3.99 ± 0.5 h | total protein half-life in vivo [8]: 4.5 h | total protein half-life in vivo [9]: 1.86 ± 0.16 h | total protein half-life in vivo [10]: 2.58 h | total protein half-life in vivo [11]: 2.69 h | total protein half-life in vivo [12]: 4.79 ± 0.6 h

MTESVARLRGEQLTLGYGKYTVAENLTVEIPDGHFTAIIGPNGCGKSTLLRTLSRLMTPAHGHVWLDGEHIQHYASKEVARRIGLLAQNATTPGDITVQELVARGRYPHQPLFTRWRKEDEEAVTKAMQATGITHLADQSVDTLSGGQRQRAWIAMVLAQETAIMLLDEPTTWLDISHQIDLLELLSELNREKGYTLAAVLHDLNQACRYASHLIALREGKIVAQGAPKEIVTAELIERIYGLRCMIIDDPVAGTPLVVPLGRTAPSTANS
total protein half-life in vivo [5]: 3.69 h | total protein half-life in vivo [6]: 3.78 h | total protein half-life in vivo [7]: 5.57 h | total protein half-life in vivo [8]: > 16 h | total protein half-life in vivo [10]: 7.66 h

MKTKLMTLQDATGFFRDGMTIMVGGFMGIGTPSRLVEALLESGVRDLTLIANDTAFVDTGIGPLIVNGRVRKVIASHIGTNPETGRRMISGEMDVVLVPQGTLIEQIRCGGAGLGGFLTPTGVGTVVEEGKQTLTLDGKTWLLERPLRADLALIRAHRCDTLGNLTYQLSARNFNPLIALAADITLVEPDELVETGELQPDHIVTPGAVIDHIIVSQESK
total protein half-life in vivo [8]: 8.54 h

MSKRYFVTGTDTEVGKTVASCALLQAAKAAGYRTAGYKPVASGSEKTPEGLRNSDALALQRNSSLQLDYATVNPYTFAEPTSPHIISAQEGRPIESLVMSAGLRALEQQADWVLVEGAGGWFTPLSDTFTFADWVTQEQLPVILVVGVKLGCINHAMLTAQVIQHAGLTLAGWVANDVTPPGKRHAEYMTTLTRMIPAPLLGEIPWLAENPENAATGKYINLALL
total protein half-life in vivo [1]: 5.58 ± 0.28 h | total protein half-life in vivo [2]: 5.37 ± 1.1 h | total protein half-life in vivo [3]: 4.33 ± 0.7 h | total protein half-life in vivo [4]: 5.17 ± 0.34 h | total protein half-life in vivo [5]: 4.64 ± 0.34 h | total protein half-life in vivo [6]: 3.06 ± 0.18 h | total protein half-life in vivo [7]: 6.24 ± 0.58 h | total protein half-life in vivo [9]: 5.44 ± 0.92 h | total protein half-life in vivo [10]: 9.86 ± 1.2 h | total protein half-life in vivo [11]: 5.77 ± 0.12 h | total protein half-life in vivo [12]: 12.5 ± 0.99 h

MNPVPAQREYFLDSIRAWLMLLGIPFHISLIYSSHTWHVNSAESSLWLTLFNDFIHSFRMQVFFVISGYFSYMLFLRYPLKKWWKVRVERVGIPMLTAIPLLTLPQFIMLQYVKGKAESWPGLSLYDKYNTLAWELISHLWFLLVLVVMTTLCVWIFKRIRNNLENSDKTNKKFSMVKLSVIFLCLGIGYAVIRRTIFIVYPPILSNGMFNFIVMQTLFYLPFFILGALAFIFPHLKALFTTPSRGCTLAAALAFVAYLLNQRYGSGDAWMYETESVITMVLGLWMVNVVFSFGHRLLNFQSARVTYFVNASLFIYLVHHPLTLFFGAYITPHITSNWLGFLCGLIFVVGIAIILYEIHLRIPLLKFLFSGKPVVKRENDKAPAR
total protein half-life in vivo [1]: > 8 h | total protein half-life in vivo [2]: 5.18 h | total protein half-life in vivo [5]: 6.23 h | total protein half-life in vivo [10]: 9.69 h | total protein half-life in vivo [11]: 7.05 h | total protein half-life in vivo [12]: > 16 h

MSAFTPASEVLLRHSDDFEQSRILFAGDLQDDLPARLDTAASRAHTQQFHHWQVLSRQMGDNARFSLVATADDVADCDTLIYYWPKNKPEAQFQLMNLLSLLPVGTDIFVVGENRSGVRSAEQMLADYAPLNKVDSARRCGLYFGRLEKQPVFDAEKFWGEYSVDGLTVKTLPGVFSRDGLDVGSQLLLSTLTPHTKGKVLDVGCGAGVLSVAFARHSPKIRLTLCDVSAPAVEASRATLAANGVEGEVFASNVFSEVKGRFDMIISNPPFHDGMQTSLDAAQTLIRGAVRHLNSGGELRIVANAFLPYPDVLDETFGFHEVIAQTGRFKVYRAIMTRQAKKG
total protein half-life in vivo [1]: 6.65 ± 1.3 h | total protein half-life in vivo [2]: 5.678 ± 0.047 h | total protein half-life in vivo [3]: 6.2 ± 0.67 h | total protein half-life in vivo [4]: 6.21 ± 0.59 h | total protein half-life in vivo [5]: 5.56 ± 0.52 h | total protein half-life in vivo [6]: 2.93 ± 0.21 h | total protein half-life in vivo [7]: 6.41 ± 0.39 h | total protein half-life in vivo [8]: 11.6 ± 0.39 h | total protein half-life in vivo [9]: 5.68 ± 0.71 h | total protein half-life in vivo [10]: 11.1 ± 1.8 h | total protein half-life in vivo [11]: 6 ± 0.36 h | total protein half-life in vivo [12]: 12.9 ± 0.31 h
